Measured values taken from patent publication US20080269139A1 (GENENCOR INTERNATIONAL, published 2008).
Substitutions are numbered along the chain they refer to.

Molecular target: T1, FGF-5 (UniProt P12034 23-268, limits assumed, biotinylated with EZ-Link Sulfo-NHS-Biotin in the BioVeris assay only)
T1 construct: also called bFGF5 (biotinylated, BioVeris assay); FGF-5, carrier-free (R&D Systems #237-F5/CF)
T1 sequence (looked up): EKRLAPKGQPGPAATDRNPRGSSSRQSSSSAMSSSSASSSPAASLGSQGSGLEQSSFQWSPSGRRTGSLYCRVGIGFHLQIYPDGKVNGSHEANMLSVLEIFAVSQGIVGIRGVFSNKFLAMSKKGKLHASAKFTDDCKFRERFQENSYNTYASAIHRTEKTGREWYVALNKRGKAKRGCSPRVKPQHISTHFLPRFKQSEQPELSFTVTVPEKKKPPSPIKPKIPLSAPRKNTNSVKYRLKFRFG
Experiment: BLA binding assay, purified peptide-BLA fusion on FGF-5-coated plate, nitrocefin

B1: 2H9 peptide-BLA fusion (other)
chain: CHYLLTNYCTPVSEKQLAEVVANTITPLMKAQSVPGMAVAVIYQGKPHYYTFGKADIAANKPVTPQTLFELGSISKTFTGVLGGDAIARGEISLDDAVTRYWPQLTGKQWQGIRMLDLATYTAGGLPLQVPDEVTDNASLLRFYQNWQPQWKPGTTRLYANASIGLFGALAVKPSGMPYEQAMTTRVLKPLKLDHTWINVPKAEEAHYAWGYRDGKAVRVSPGMLDAQAYGVKTNVQDMANWVMANMAPENVADASLKQGIALAQSRYWRIGSMYQGLGWEMLNWPVEANTVVEGSDSKVALAPLPVAEVNPPAPPVKASWVHKTGSTGGFGSYVAFIPEKQIGIVMLANTSYPNPARVEAAYHILEALQHHHHHH
- Percent Bound at 0.1 nM: 5%

B2: 2E2 peptide-BLA fusion (other)
chain: B1 chain with H2L, Y3T, L4V, T6W, N7T, Y8T
- Percent Bound at 0.1 nM: 7%

B3: 2H10 peptide-BLA fusion (other)
chain: B1 chain with H2R, Y3I, L4H, T6A, N7H, Y8K
- Percent Bound at 0.1 nM: 8%

B4: 1A6 peptide-BLA fusion (other)
chain: B1 chain with H2E, Y3E, L4I, L5W, N7M, Y8L
- Percent Bound at 0.1 nM: 8%
